US11254745 (CROWN BIOSCIENCE, dated 2022)
Numbering of substitutions follows the chain as printed.

B1: Chimeric 29B7 anti-CD4 antibody (antibody, human IgG1, kappa, V domains shown)
VH: QVQLQQSGAELAKPGASVKMSCKTSADSLNTHWMHWVKQRPGQGLEWIGYINPYTGSGEYSQKFKGKATLTADISSSTAYMQLISLTSEDSAVYYCAYDSTGAMDYWGQGTSVTVSS
VL: DIKMTQSPSSMYASLGERITITCKASQDINRYLSWFQQKPGKSPKTPIYRADRSVDGVPSRFSGSGSGQDYSLTISSLEYEDMGIYYCQQYDEFPYTFGGGTKLEIKR
B2: 29B7 murine hybridoma anti-CD4 antibody (antibody, V domains shown)
VH: B1 VH
VL: DIKMTQSPSSMYASLGERITITCKASQDINRYLSWFQQKPGKSPKTPIYRADRSVDGVPSRFSGSGSGQDYSLTISSLEYEDMGIYYCQQYDEFPYTFGGGTKLEIK
notes: also called hybridoma clone 29B7
B3: 10C2 murine hybridoma anti-CD4 antibody (antibody, V domains shown)
VH: EVKLQQSGTELMKPGASVKISCKATGYTFSSYWIEWIKQRPGRGLEWIGEILPGSGSTNYNEEFTGRATFTADTFSNTAYMQLSSLTSEDSAVYYCARSVSASNWYFDVWGAGTTVTVSS
VL: DIVMTQSPASLAVSLGQRATISCRASQSVSTSSYSYMHWYQQKPGQPPKFLIKYASNLESGVPARFSGSGSGTDFTLNIHPVEEEDTATYYCQHSWEIPPTFGGGTKLEIK
notes: also called hybridoma clone 10C2
B4: Chimeric 33E12 anti-CD4 antibody (antibody, human IgG1, kappa, V domains shown)
VH: DVQLQESGPGLVKPSQSLSLTCTVTGYSITSDYAWNWIRQFPGNKLEWMGYISYSGITSYNPSLKSRFSITRDTSKNQFFLQLNSVTTEDTATYYCARLDSSGYGAMDYWGQGTSVTVSS
VL: DIVLTQSPASLPVSLGQRATISCRASQSVSTSSYSYMHWYQQKPGQPPKLLIRYASNLESGVPARFSGSGSGTDFTLNIHPVEEEDTATYYCQHSWDFPLTFGAGTKLELKR
B5: Chimeric 10C2 anti-CD4 antibody (antibody, human IgG1, kappa, V domains shown)
VH: B3 VH
VL: B4 VL with L4M, P12A, L50F, R53K, D97E, F98I, L100P, A104G, L110I
B6: 33E12 murine hybridoma anti-CD4 antibody (antibody, V domains shown)
VH: B4 VH
VL: B3 VL with M4L, A12P, F50L, K53R, E97D, I98F, P100L, G104A, I110L
notes: Mouse antibody purified from hybridoma supernatant on Protein A and detected with goat anti-mouse IgG; also called hybridoma clone 33E12
B7: Chimeric MT412 anti-CD4 antibody (antibody, human IgG1, kappa, V domains shown)
VH: QIQLVQSGPELKKPGETVKISCKASGYTFTDYSMHWVKQAPGKDLKWMGWINTETGEPTYADDFKGRFAFSLETSASTAYLQINNLKNEDTATYFCAREDYYGHDGFLYWGQGTLVTVSS
VL: DIVMTQSHKFMSTSVGDRVSITCKASQDVVTTVAWYQQKPGQSPKLLIYWASLRHTGVPDRFTGSGSGTDFTLTISNVQFEDLADYFCQQYSSYPYTFGGGTKLEIKR
B8: Chimeric 2B6 anti-CD4 antibody (antibody, human IgG1, kappa, V domains shown)
VH: EVQLQESGPSLVKPSQTLSLTCSVTGDSITSGYWNWIRKFPGHKLEFLGYISFADTTNYNPSLKSRVSITRDTSKNQFDLQLKSVTTEDTATYHCARDDYGYYAMDYWGQGISVTVSS
VL: DIHLTQTTSSLSASLGDRVTIICRASQDIDNYLNWYQLKPDGTLKLLIYYTSRLHSGVPSRFSGSGSGTEYSLTISNLEREDVATYFCQQGNTLPTFGAGTKLELKR
B9: 2B6 murine hybridoma anti-CD4 antibody (antibody, V domains shown)
VH: B8 VH
VL: DIHLTQTTSSLSASLGDRVTIICRASQDIDNYLNWYQLKPDGTLKLLIYYTSRLHSGVPSRFSGSGSGTEYSLTISNLEREDVATYFCQQGNTLPTFGAGTKLELK
notes: also called hybridoma clone 2B6
B10: Chimeric 11E12 anti-CD4 antibody (antibody, human IgG1, kappa, V domains shown)
VH: B8 VH with Q5E, G32S, V67I, H94Y, Y100F
VL: B8 VL with H3Y, L4V, D30N, S63G, R80Q
B11: 11E12 murine hybridoma anti-CD4 antibody (antibody, V domains shown)
VH: B8 VH with Q5E, G32S, V67I, H94Y, Y100F
VL: B9 VL with H3Y, L4V, D30N, S63G, R80Q
notes: also called hybridoma clone 11E12

Key:
[1] = biological target: T1, extracellular domain of hCD4 fused with a histidine tag (hCD4-HisTag) (human, UniProt P01730 26-396); assay: Biacore T200 SPR, antibody captured on Protein A, CD4-HisTag analyte, 1:1 fit, 25 C
T1 construct: extracellular domain; also called human CD4-HisTag; not shown: histidine tag
Description: The binding kinetics between CD4 and CD4 antibodies were measured by Biacore™ analysis, which was performed at 25° C. on a Biacore™ T200 instrument. Protein A (GE, Cat. No:29139131-AA) was diluted with 10 mM pH 5.0 sodium acetate and immobilized onto reference and experiment flow cells of a CM5 biosensor chip to around 15000 RU using an amine coupling kit (GE, BR10050). In the beginning of each cycle, diluted test antibody (1.5 µg/mL) was injected over experiment flow cell for 1 minute to be captured. CD4-HisTag analyte series were prepared by diluting the stocks with running buffer to 100 nM followed by 2-fold serial dilution in the same buffer down to 0.78 nM. Analytes were injected in series over the reference and experiment flow cells for 3 minutes at a flow rate of 30
μL/minute. Running buffer (PBS with 0.05% P20) was allowed to flow over for 10 minutes at a flow rate of 30 μL/minute. At the end of each cycle, the biosensor surface was regenerated with 3-minute injection of 10 mM pH 2.0 Glycine-HCl buffer at a flow rate of 10 μL/minute. For each analyte sample injection (i.e., each cycle), binding responses obtained from the experimental biosensor surface were double referenced by subtracting simultaneously recorded responses from the reference surface followed by additional subtraction of responses from a single referenced running buffer sample. The association and dissociation rate constants (ka and kd) were determined simultaneously by fitting double-referenced sensorgrams of the entire titration series to Langmuir model (1:1) using Biaevaluation software. The dissociation constant, KD, was calculated from the determined rate constants by the equation KD=kd/ka.

[2] = biological target: T2, extracellular domain of hCD4 fused with human Fc tag (hCD4-hFc) (human, UniProt P01730 26-396); assay: ELISA, chimeric antibody on hCD4, method similar to Example 2
T2 construct: extracellular domain; also called human CD4-hFc; hCD4 (ELISA); not shown: human Fc tag
Description: (§1) Example 2: Selection of the Anti-hCD4 Hybridoma Antibodies Based on Binding and Gene Reporter Assays The binding interaction between hybridoma antibody and human CD4-hFc was measured by ELISA. 96-well plates (Costar, Cat. No:9018) were coated with 100 μL of 2 μg/ml CD4-hFc (CrownBio) in PBS buffer (Hyclone, Cat. No: SH30256.01B) overnight at 4° C. The wells were aspirated and non-specific binding sites were blocked by adding 200 μL of blocking buffer containing 1% (w/v) of bovine serum albumin (BSA, Roche, Cat. No: 738328) and incubating for 1 hour at 37° C. After the plates are washed three times with PBS buffer containing 0.05% (v/v) Tween™ 20 (Sigma, Cat. No: P1379), 100 μL hybridoma supernatant or a serial concentrations of purified antibody (starting from 20 μg/mL) diluted in blocking buffer was added to each well and incubated at room temperature for 1 hour. The plates were washed and incubated with 100 μL/well of Goat anti-Mouse IgG (Thermo, Cat. No:31432) in blocking buffer for 60 min. After the plates were washed, 100 μL/well of substrate solution TMB (eBioscience, Cat. No:00-4201-56) was added, and the plates were incubated for 2 min at room temperature before 100 μL/well of 2N H_2SO_4 was added to stop the reaction. The colorimetric signals were monitored at 450 nm using a SpectraMax Plus microplate reader (Molecular Devices). For the purified antibody, data were analyzed using GraphPad Prism 5 to calculated the $EC50$.
(§2) Freestyle 293 cells (200 mL at 1*10^6/mL) were transfected with 100 µg of each of the chimeric heavy and light chain expression plasmids and cultured for 6 days at 37° C. The chimeric antibody in the supernatant was then purified with Protein-A column (GE healthcare). Binding of the chimeric antibody with CD4 was measured by ELISA (FIG. 3, Table 5) and FACS (FIG. 4, Table 6), using the similar methods described above in Example 2.

[3] = biological target: T3, human CD4 on 293T cells stably expressing CD4 (CD4-293T) (human, UniProt P01730 26-458); assay: FACS, chimeric antibody on CD4-293T cells
T3 construct: whole, on cells; also called 293T-CD4 cells; hCD4 (FACS)
Description: (§3) Cell binding analysis of anti-CD4 antibody was performed using 293T cell line stably expressing CD4 (CD4-293T). 2*10^5 CD4-293T cells were added to each well of 96-well plate and incubated with the indicated hybridoma supernatant or a serial concentrations of purified antibody (starting from 20 μg/mL) at 4° C. for 1 h. After the cells were washed three times with FACS buffer, the secondary antibody (PE Goat anti-mouse: 1:200) was added to the cells at 100 μl/well, and incubated at 4° C. for 40 min. Cells were washed three times with FACS buffer and analyzed by FACS Array. The binding EC50 of purified antibody was calculated with GraphPad Prism 5.
as §2

[4] = biological target: T3, human CD4 on 293T cells stably …; assay: FACS on 293T cells expressing human CD4, MFI; table under the graph (unit from the graph's axis); Table 6 of the text gives this value to MT412
Description: as §3, §2

[5] = biological target: T2, extracellular domain of hCD4 fused with …; assay: ELISA, purified hybridoma antibody on coated CD4-hFc
Description: as §1

[6] = biological target: T3, human CD4 on 293T cells stably …; assay: FACS on 293T cells expressing human CD4, MFI; table under the graph (unit from the graph's axis); Table 6 of the text gives this value to 10C2
Description: as §3, §2

[7] = biological target: T3, human CD4 on 293T cells stably …; assay: FACS on 293T cells expressing human CD4, MFI; table under the graph (unit from the graph's axis); Table 6 of the text gives this value to 2B6
Description: as §3, §2

[8] = biological target: T3, human CD4 on 293T cells stably …; assay: FACS on 293T cells expressing human CD4, MFI; table under the graph (unit from the graph's axis); Table 6 of the text gives this value to 11E12
Description: as §3, §2

[9] = biological target: T3, human CD4 on 293T cells stably …; assay: FACS on 293T cells expressing human CD4, MFI; table under the graph (unit from the graph's axis); Table 6 of the text gives this value to 29B7
Description: as §3, §2

Row | Binder | Kd [1] [nM] | koff [1] [s⁻¹] | kon [1] [M⁻¹ s⁻¹] | EC50 [2] [µg/mL] | EC50 [3] [µg/mL] | EC50 [5] [µg/mL] | other results
1 | B1 | 0.0843 | 5.98e-05 | 709000 | 0.0243 | 0.401 | – | EC50 [4]: 0.515 µg/mL
2 | B2 | – | – | – | – | – | 0.0334 | –
3 | B3 | – | – | – | – | – | 0.0368 | –
4 | B4 | 4.25 | 0.00461 | 1.09e+06 | 0.0204 | 0.351 | – | EC50 [6]: 0.882 µg/mL
5 | B5 | 1.19 | 0.00019 | 160000 | 0.0179 | 0.882 | – | EC50 [7]: 0.669 µg/mL
6 | B6 | – | – | – | – | – | 0.034 | –
7 | B7 | 1.61 | 0.000941 | 586000 | 0.0165 | 0.515 | – | –
8 | B8 | 0.373 | 0.000122 | 327000 | 0.0165 | 0.669 | – | EC50 [8]: 0.316 µg/mL
9 | B9 | – | – | – | – | – | 0.0261 | –
10 | B10 | 6.26 | 0.00618 | 987000 | 0.0168 | 0.316 | – | EC50 [9]: 0.401 µg/mL
11 | B11 | – | – | – | – | – | 0.027 | –
